Measured values reported in patent publication US20060014680A1, “Peptides and compounds that bind to the IL-5 receptor” (priority 2004, published 2006).
Positions of bridges follow the written chain, without caps; N, C: chain ends.

T1: human IL-5Rα extracellular domain (Homo sapiens, UniProt Q01344)
T1 construct: human IL-5Rα extracellular domain harvest; made in house; host or cells: CHO cells
T1 sequence (Q01344 21-342 limits assumed): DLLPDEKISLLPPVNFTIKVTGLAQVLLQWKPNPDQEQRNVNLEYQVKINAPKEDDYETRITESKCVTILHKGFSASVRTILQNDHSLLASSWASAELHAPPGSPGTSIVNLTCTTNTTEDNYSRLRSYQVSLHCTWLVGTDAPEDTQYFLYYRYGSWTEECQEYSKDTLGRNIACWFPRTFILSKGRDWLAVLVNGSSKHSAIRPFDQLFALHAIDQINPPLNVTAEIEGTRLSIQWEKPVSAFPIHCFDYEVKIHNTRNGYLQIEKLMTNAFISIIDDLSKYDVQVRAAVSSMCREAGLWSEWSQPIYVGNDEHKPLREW

T2: human IL-5 receptor (Homo sapiens, UniProt P32927+Q01344)
T2 construct: endogenous in cells; host or cells: HL60 subclone induced towards eosinophil differentiation with sodium butyrate
T2 sequence (Q01344 21-420): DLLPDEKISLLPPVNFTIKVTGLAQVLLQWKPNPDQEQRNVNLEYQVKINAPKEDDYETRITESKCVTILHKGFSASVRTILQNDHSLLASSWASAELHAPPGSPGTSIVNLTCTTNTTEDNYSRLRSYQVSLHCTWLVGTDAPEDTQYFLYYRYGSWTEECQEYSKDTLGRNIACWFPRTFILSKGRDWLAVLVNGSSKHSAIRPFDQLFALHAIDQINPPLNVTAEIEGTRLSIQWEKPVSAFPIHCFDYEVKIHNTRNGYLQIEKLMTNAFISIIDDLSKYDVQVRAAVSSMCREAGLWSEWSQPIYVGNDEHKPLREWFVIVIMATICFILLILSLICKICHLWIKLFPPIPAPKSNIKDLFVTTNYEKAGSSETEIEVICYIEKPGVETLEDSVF
T2 sequence (P32927 17-897): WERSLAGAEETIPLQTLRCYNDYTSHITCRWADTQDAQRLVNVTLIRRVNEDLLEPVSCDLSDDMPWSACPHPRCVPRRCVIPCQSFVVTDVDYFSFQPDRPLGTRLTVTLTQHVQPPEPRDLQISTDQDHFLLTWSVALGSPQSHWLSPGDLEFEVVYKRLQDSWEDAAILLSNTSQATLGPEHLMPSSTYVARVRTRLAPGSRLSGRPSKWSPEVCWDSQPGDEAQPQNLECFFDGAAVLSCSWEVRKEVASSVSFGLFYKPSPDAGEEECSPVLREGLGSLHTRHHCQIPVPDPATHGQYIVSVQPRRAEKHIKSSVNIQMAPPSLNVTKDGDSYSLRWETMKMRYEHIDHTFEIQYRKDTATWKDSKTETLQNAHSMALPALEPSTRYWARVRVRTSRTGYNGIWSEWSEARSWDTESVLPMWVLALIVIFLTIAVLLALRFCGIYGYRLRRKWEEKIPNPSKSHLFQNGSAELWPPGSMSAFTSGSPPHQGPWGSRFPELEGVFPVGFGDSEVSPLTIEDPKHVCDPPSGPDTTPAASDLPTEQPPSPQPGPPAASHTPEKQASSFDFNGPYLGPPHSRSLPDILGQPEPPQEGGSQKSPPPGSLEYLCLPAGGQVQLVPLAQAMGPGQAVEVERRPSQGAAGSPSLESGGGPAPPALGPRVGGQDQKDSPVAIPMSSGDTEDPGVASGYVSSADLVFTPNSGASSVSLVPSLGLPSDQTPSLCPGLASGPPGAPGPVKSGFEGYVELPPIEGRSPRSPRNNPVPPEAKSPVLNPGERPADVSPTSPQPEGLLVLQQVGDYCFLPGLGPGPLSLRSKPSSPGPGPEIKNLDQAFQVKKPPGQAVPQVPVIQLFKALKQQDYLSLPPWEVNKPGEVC

T3: human IL-5Rα extracellular domain harvest with a MAb 179 epitope tag (human, UniProt Q01344 21-342)
T3 construct: extracellular domain; Captured on MAb179-conjugated AlphaScreen acceptor beads; also called IL-5 receptor; IL-5R-α chain ECD
T3 sequence (looked up): T1 sequence (Q01344 21-342 limits assumed)


Molecular target: T1, human IL-5Rα extracellular domain
Assay: IL-5 receptor-ligand Alpha Quest binding assay (alanine scan of AF17121, FIG. 1)
Settings: relative to parent monomer AF17121 (SEQ ID NO:1); single Ala substitution
Method: The affinity of compounds for the IL-5 receptor was tested in a homogeneous Alpha Quest binding assay. The peptides tested were solubilized at approximately 10 mM in DMSO. Each peptide was then serially diluted into freshly made, sterile filtered assay buffer (40 mM Hepes, pH 7.4 with NaOH, containing 1 mM MgCl2, 0.1% BSA and 0.05% Tween-20). Four microliters of each test compound dilution was transferred in triplicate to a 384-well, low volume, white, polypropylene Griener plate (E&K Scientific #31075). A mixture was prepared in assay buffer containing Packard Bioscience AlphaScreen streptavidin coated donor beads at […], MAb179 (prepared as described in Whitehom, E., A Generic Method for Expression and Use of “Tagged” Soluble Versions of Cell Surface Receptor, Biotechnolgy 1995, 13, 1215-1219) conjugated Packard Bioscience Alpha Screen acceptor beads per manufactures protocol, at 40 ug/mL, and human IL-5Rα extracellular domain harvest with a MAb 179 epitope tag prepared as previously described (England, B., A Potent Dimeric Peptide Antagonist of Interleukin-5 that Binds Two Interleukin-5 Receptor α Chains, PNAS, vol.97, no. 12, 6862-6867). Two microliters of beads and receptor harvest mixture were added to each assay well. Alpha Quest beads are light sensitive so all steps after the introduction of the beads were carried out under green lighting (lights adapted with Roscolux Chroma Green #389 filter sleeves which transmit <1% at 680 nm). After a 5-10 minute room temperature incubation, two microliters of 62.4 nM biotinylated MBP-AF12368, GEVCTRDVANHRWMCGVD (SEQ ID NO 73), tracer peptide (prepared as described in Schatz P., Use of Peptide Libraries to Map the Substrate Specificity of a Peptide-Modifying Enzyme: A 13 Residue Consensus Peptide Specifies Biotinylation in Escherichia coli, Biotechnology 1993, 11, 1138-1143) diluted in assay buffer was added to each well. The assay plate was spun to 55 rpm in a plate centrifuge, sealed with Packard Top Seal, wrapped in foil and placed in a room temperature incubator in the instrument room. The plate was read after 16-20 hours using a Packard Bioscience Alpha Quest Discovery™ plate reader.
Results for various compound embodiments of the invention are depicted in FIGS. 1-4 and 6-8.

Molecule | more potent (peptide monomer with single alanine substitution)
Ac-ADECWRIIASHTWFCAEE-NH2 (cysteine pairing not given here) [AF35921] | about 350%
Ac-VDECWRIIAAHTWFCAEE-NH2 (cysteine pairing not given here) [AF35912] | about 450%
Ac-VDECWRIIASHAWFCAEE-NH2 (cysteine pairing not given here) [AF35910] | about 135%
Ac-Val Ala Glu Cys Trp Arg Ile Ile Ala Ser His Thr Trp Phe Cys Ala Glu Glu-NH2 (Ac-VAECWRIIASHTWFCAEE-NH2; not fully specified (bridges); printed as Ac-Val Ala Glu Cys Trp Arg Ile Ile Ala Ser His Thr Trp Phe Cys Ala Glu Glu-NH2; cysteine pairing not given here) [AF35920] | about 200%
Ac-Val Asp Ala Cys Trp Arg Ile Ile Ala Ser His Thr Trp Phe Cys Ala Glu Glu-NH2 (Ac-VDACWRIIASHTWFCAEE-NH2; not fully specified (bridges); printed as Ac-Val Asp Ala Cys Trp Arg Ile Ile Ala Ser His Thr Trp Phe Cys Ala Glu Glu-NH2; cysteine pairing not given here) [AF35918] | about 675%

Molecular target: T2, human IL-5 receptor
Assay: not given
Settings: high affinity IL-5 binding sites; HL60 subclone, eosinophilic differentiation initiated with sodium butyrate; cited from earlier work

Molecule | Kd [nM]
IL-5: lymphokine secreted by T cells and mast cells, having biological activities on B cells and eosinophils | 0.03

Molecular target: T3, human IL-5Rα extracellular domain …
Assay: alanine scan of AF17121, AlphaQuest competition binding assay on human IL-5Rα ECD with the tracer biotinylated MBP-AF12368 (the assay is named by FIG. 1, not by the sentence)
Settings: not given
Method: The affinity of compounds for the IL-5 receptor was tested in a homogeneous Alpha Quest binding assay. The peptides tested were solubilized at approximately 10 mM in DMSO. Each peptide was then serially diluted into freshly made, sterile filtered assay buffer (40 mM Hepes, pH 7.4 with NaOH, containing 1 mM MgCl₂, 0.1% BSA and 0.05% Tween-20). Four microliters of each test compound dilution was transferred in triplicate to a 384-well, low volume, white, polypropylene Griener plate (E&K Scientific #31075). A mixture was prepared in assay buffer containing Packard Bioscience AlphaScreen streptavidin coated donor beads at […], MAb179 (prepared as described in Whitehom, E., A Generic Method for Expression and Use of “Tagged” Soluble Versions of Cell Surface Receptor, Biotechnolgy 1995, 13, 1215-1219) conjugated Packard Bioscience Alpha Screen acceptor beads per manufactures protocol, at 40 ug/mL, and human IL-5Rα extracellular domain harvest with a MAb 179 epitope tag prepared as previously described (England, B., A Potent Dimeric Peptide Antagonist of Interleukin-5 that Binds Two Interleukin-5 Receptor α Chains, PNAS, vol.97, no. 12, 6862-6867). Two microliters of beads and receptor harvest mixture were added to each assay well. Alpha Quest beads are light sensitive so all steps after the introduction of the beads were carried out under green lighting (lights adapted with Roscolux Chroma Green #389 filter sleeves which transmit <1% at 680 nm). After a 5-10 minute room temperature incubation, two microliters of 62.4 nM biotinylated MBP-AF12368, […] (SEQ ID NO 73), tracer peptide (prepared as described in Schatz P., Use of Peptide Libraries to Map the Substrate Specificity of a Peptide-Modifying Enzyme: A 13 Residue Consensus Peptide Specifies Biotinylation in Escherichia coli, Biotechnology 1993, 11, 1138-1143) diluted in assay buffer was added to each well. The assay plate was spun to 55 rpm in a plate centrifuge, sealed with Packard Top Seal, wrapped in foil and placed in a room temperature incubator in the instrument room. The plate was read after 16-20 hours using a Packard Bioscience Alpha Quest Discovery™ plate reader.

Molecule | percent more potent than AF17121 (SEQ ID NO: 1) [%]
Ac-ADECWRIIASHTWFCAEE-NH2 (disulfide 4-15 (inferred)) [AF35921 (Ac-Ala Asp Glu Cys Trp Arg Ile Ile Ala Ser His Thr Trp Phe Cys Ala Glu Glu-NH2)] | ~350
Ac-VDECWRIIASHAWFCAEE-NH2 (disulfide 4-15 (inferred)) [AF35910 (Ac-Val Asp Glu Cys Trp Arg Ile Ile Ala Ser His Ala Trp Phe Cys Ala Glu Glu-NH2)] | ~135
Ac-VAECWRIIASHTWFCAEE-NH2 (disulfide 4-15 (inferred)) [AF35920 (Ac-Val Ala Glu Cys Trp Arg Ile Ile Ala Ser His Thr Trp Phe Cys Ala Glu Glu-NH2)] | ~200
Ac-VDACWRIIASHTWFCAEE-NH2 (disulfide 4-15 (inferred)) [AF35918 (Ac-Val Asp Ala Cys Trp Arg Ile Ile Ala Ser His Thr Trp Phe Cys Ala Glu Glu-NH2)] | ~675
Ac-VDECWRIIAAHTWFCAEE-NH2 (disulfide 4-15 (inferred)) [AF35912 (Ac-Val Asp Glu Cys Trp Arg Ile Ile Ala Ala His Thr Trp Phe Cys Ala Glu Glu-NH2)] | ~450
